Here are results for three molecules from article PMC9162458, “Divergent binding mode for a protozoan BRC repeat to RAD51” (Biochemical Journal, 2022).

The chains are these.
B1: LiBRC1.3 (LiBRC1 with extended termini, GB1 fusion) (domain or fragment)
chain: AAAPPLVPTLFSTASGKPVTVRRESLQKVAERLGDLAA
modifications: not fully specified (N-terminus); also: GB1 fusion
B2: GB1-LiBRC2-His8 (BRC repeat 2 of Leishmania infantum BRCA2 fused to GB1) (domain or fragment)
chain: GB1-RVPTLFETGRGKAVTVQKRSLDKAEASMDSLEA-His8
B3: LiBRC1.2 (LiBRC1 with extended termini, GB1 fusion) (domain or fragment)
chain: LVPTLFSTASGKPVTVRRESLQKVAERLGDLAAPDME
modifications: not fully specified (N-terminus); also: GB1 fusion

The term Kd denotes a measure of binding affinity in units of concentration.

Ends that are not written are not given here.

In the assay the target is T1, LiRAD51^ATPase (Leishmania infantum RAD51 ATPase domain, residues 134–386) (Leishmania infantum).
T1 construct: RAD51 of Leishmania infantum, ATPase domain, residues 134-386; Vector pHAT2 (Addgene #112583); No removal of the His-tag is described; also called monomeric LiRAD51^ATPase; LiRAD51 ATPase domain; source: E. coli (T7Express or BL21(DE3)); purified (Ni-NTA, Superdex 75 SEC) for FP and ITC; in lysate for the pull-down
Kind of assay: fluorescence polarisation; competition: 5 nM Fluor-NCys-LiBRC1 probe with 500 nM LiRAD51^ATPase, GB1-LiBRC repeats in serial dilutions; KD estimated from the fitted IC50; 50 mM Tris pH 8.0, 150 mM NaCl, 100 mM Li2SO4, 1% BSA, 0.1% Tween-20. To be noted: both partners purified.
On to B1, for which the Kd is 310 nM.

Turning to B2, the Kd was 13600 nM.

For B3, the Kd was 190 nM.
